B1: Pistol ribozyme (parent)
chain: GGGUCGUUGUUCCAUAAUCGCGUGGAUAUGGCACGCAAGUUUCUACCGGGCACCGUAAAUGUCCGACUGGAGCCGUUCGGGCGGCUAUAAACAGACCUCAGGCCCGAAGCGUGGCGGCACCUGCCGCCGGUGGUAAAAAAGAUCGGAAGAGCACACGUCU

Variants of: B1
Experiment: aptazyme ON/OFF ratio, guanine; higher = stronger switching; co-transcriptional cleavage with and without guanine

Variant | aptazyme ON/OFF ratio
U7G U8A G9A U11A C13G | 1.02
U7G U8A G9A U11A C13U | 1.12
U7G U8A G9A U11A C13A | 1.06
U7G U8A G9A U11C C13U | 1.06
U7G U8A G9A U11C C13A | 1.07
U7G U8A G9A U11C C13G | 1.06
U7G U8A G9C U10G U11G C12U C13U | 1.15
U7G U8A G9C U10G U11G C12U C13G | 1.03
U7G U8A G9C U10G U11G C12U C13A | 1.07
U7G U8A G9A U11A C12A C13G | 1.08
U7G U8A G9A U11A C12A C13A | 1.16
U7G U8A G9A U11A C12A C13U | 1.21
U7G U8A G9A U10G U11C C12U C13G | 1.12
U7G U8A G9A U10G U11C C12U C13U | 1.1
U7G U8A G9A U10G U11C C12U C13A | 1.1
U7G U8A G9C U10A U11A C13G | 1.04
U7G U8A G9C U10A U11A C13U | 1.04
U7G U8A G9C U10A U11A C13A | 1.05
U7G U8A G9C U10C U11A C12U C13G | 1.04
U7G U8A G9C U10C U11A C12U C13A | 1.02
U7G U8A G9C U10C U11A C12U C13U | 1.03

Variant | aptazyme ON/OFF ratio
U7G U8A G9C U10A U11G | 1.05
U7G U8A G9C U10A U11A | 1.09
U7G U8A G9C U10A U11C | 1.06
U7G U8A G9C U10C C12U C13U | 1.01
U7G U8A G9C U10C C12U C13A | 1.04
U7G U8A G9C U10C C12U C13G | 1.01
U7G U8A G9C | 1.12
U7G U8A G9A U11G | 1.26
U7G U8A G9A U11A | 1.45
U7G U8A G9A U11C | 1.03
U7G U8A G9C U10G C13A | 1.11
U7G U8A G9C U10G C13U | 1.1
U7G U8A G9C U10G C13G | 1.09
U7G U8A G9C U10C U11G C12A C13A | 1.02
U7G U8A G9C U10C U11G C12A C13G | 1
U7G U8A G9C U10C U11G C12A C13U | 1.01
U7G U8A G9A U10G U11G C12G C13A | 1.27
U7G U8A G9A U10G U11G C12G C13U | 1.26
U7G U8A G9A U10G U11G C12G C13G | 1.16
U7G U8A G9C U10G U11A | 1.04
U7G U8A G9C U10G U11G | 1.14

Variant | aptazyme ON/OFF ratio
U7G U8A G9C U10G U11C | 1.03
U7G U8A G9A U10G U11A C12G C13U | 1.14
U7G U8A G9A U10G U11A C12G C13G | 1.29
U7G U8A G9A U10G U11A C12G C13A | 1.04
U7G U8A G9C U11C C12A C13A | 1.04
U7G U8A G9C U11C C12A C13G | 1.04
U7G U8A G9C U11C C12A C13U | 1.06
U7G U8A G9C U10C U11C C12G C13U | 1.03
U7G U8A G9C U10C U11C C12G C13G | 1.04
U7G U8A G9C U10C U11C C12G C13A | 1.05
U7G U8A G9A U11C C12U C13G | 1.29
U7G U8A G9A U11C C12U C13A | 1.23
U7G U8A G9A U11C C12U C13U | 1.17
U7G U8A G9A U10G U11C C12G C13A | 1.1
U7G U8A G9A U10G U11C C12G C13G | 1.04
U7G U8A G9A U10G U11C C12G C13U | 1.11
U7G U8A G9A U11A C12G C13U | 1.14
U7G U8A G9A U11A C12G C13G | 1.09
U7G U8A G9A U11A C12G C13A | 1.17
U7G U8A G9A U10G U11C | 1.03
U7G U8A G9A U10G U11G | 1.07

Variant | aptazyme ON/OFF ratio
U7G U8A G9A U10G U11A | 1.01
U7G U8A G9C U10C U11A C12A C13G | 1.02
U7G U8A G9C U10C U11A C12A C13A | 1.01
U7G U8A G9C U10C U11A C12A C13U | 1.03
U7G U8A G9C U10A U11C C12U | 1.04
U7G U8A G9C U10A U11C C12A | 1.05
U7G U8A G9C U10A U11C C12G | 1.05
U7G U8A G9C U10A U11C C12G C13A | 1.04
U7G U8A G9C U10A U11C C12G C13U | 1.04
U7G U8A G9C U10A U11C C12G C13G | 1.04
U7G U8A G9C U10G C12A | 1.02
U7G U8A G9C U10G C12U | 1.03
U7G U8A G9C U10G C12G | 1.06
U7G U8A G9A U11G C12A C13U | 1.23
U7G U8A G9A U11G C12A C13G | 1.13
U7G U8A G9A U11G C12A C13A | 1.05
U7G U8A G9C U10C U11G C12G C13G | 1.02
U7G U8A G9C U10C U11G C12G C13A | 1.02
U7G U8A G9C U10C U11G C12G C13U | 1.02
U7G U8A G9A U11A C12U C13G | 1.04

Source: the RNAGym collection of RNA variant scans (doi:10.1021/acssynbio.7b00057)
